Measurements as given in patent publication US20260258113A1, “BETA GLOBIN MIMETIC PEPTIDES AND THEIR USE” (THE UNITED STATES OF AMERICA, AS REPRESENTED BY THE …, priority 2022, published 2026).

Biological target: T1, alpha globin (Homo sapiens, UniProt P69905)
T1 construct: The equilibrium dissociation constant of full-length alpha globin and the eNOS oxygenase domain had not previously been quantified
Assay: Protein-protein binding affinity by biolayer interferometry
Details: binding to immobilized biotinylated alpha globin
Method: FIGS. 2A-2D: A) Beta globin, eNOS, and cytochrome B5 reductase 3 (Cyb5R3) co-immunoprecipitate with alpha globin in lysates of perfused human omental arteries. P1, P2, and P3 each represent an independent replicate consisting of pooled flash-frozen arteries from two donors (n=30 arteries from each donor). P1 and P2 were incubated with an alpha globin antibody to immunoprecipitate alpha globin and bound protein partners. P3 was incubated instead with an IgG antibody as a negative control. Western blot was performed on the immunoprecipitate with antibodies for alpha globin, beta globin, Cyb5R3, or eNOS. Myc-eNOS purified from a cell overexpression lysate served as a positive control for eNOS. RBC lysate served as a positive control for alpha and beta globin. B) The red blood cell protein Band 3/SLC4A1 is not detected in protein lysates from pooled human omental arteries. Prior to immunoprecipitation, whole protein lysate was loaded into a gel and probed by Western Blot for SLC4A1 and alpha globin. […] C-D) Biolayer interferometry sensorgram traces of the binding of eNOS or AHSP to alpha globin showing association and dissociation; raw datasets shown in black, fitting curves shown. […]
Protein-protein binding affinity assessed by biolayer interferometry: Biolayer interferometry experiments were performed on the automated eight-channel Octet RED96 instrument (ForteBio). […]

T1 sequence (P69905 whole entry, the tested form may be a part): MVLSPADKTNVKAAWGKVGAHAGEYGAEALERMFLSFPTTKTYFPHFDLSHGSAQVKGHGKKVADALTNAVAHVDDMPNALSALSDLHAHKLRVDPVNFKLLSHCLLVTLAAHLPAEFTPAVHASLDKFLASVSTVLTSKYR

Kd: 1310 nM
B1: eNOSox: recombinant human eNOS oxidase domain (protein)
chain: PKFPRVKNWEVGSITYDTLSAQAQQDGPCTPRRCLGSLVFPRKLQGRPSPGPPAPEQLLSQARDFINQYYSSIKRSGSQAHEQRLQEVEAEVAATGTYQLRESELVFGAKQAWRNAPRCVGRIQWGKLQVFDARDCRSAQEMFTYICNHIKYATNRGNLRSAITVFPQRCPGRGDFRIWNSQLVRYAGYRQQDGSVRGDPANVEITELCIQHGWTPGNGRFDVLPLLLQAPDDPPELFLLPPELVLEVPLEHPTLEWFAALGLRWYALPAVSNMLLEIGGLEFPAAPFSGWYMSTEIGTRNLCDPHRYNILEDVAVCMDLDTRTTSSLWKDKAAVEINVAVLHSYQLAKVTIVDHHAATASFMKHLENEQKARGGCPADWAWIVPPISGSLTPVFHQEMVNYFLSPAFRYQPDPWKGSAAKGTGITR
